From PMC5405935, “Role of Kif15 and its novel mitotic partner KBP in K-fiber dynamics and chromosome alignment” (PLoS ONE, 2017)

B1: Kif15-M-His (amino acids 1-714, motor domain and part of the stalk) (domain or fragment, human, UniProt Q9NS87 1-714, looked up)
chain: MAPGCKTELRSVTNGQSNQPSNEGDAIKVFVRIRPPAERSGSADGEQNLCLSVLSSTSLRLHSNPEPKTFTFDHVADVDTTQESVFATVAKSIVESCMSGYNGTIFAYGQTGSGKTFTMMGPSESDNFSHNLRGVIPRSFEYLFSLIDREKEKAGAGKSFLCKCSFIEIYNEQIYDLLDSASAGLYLREHIKKGVFVVGAVEQVVTSAAEAYQVLSGGWRNRRVASTSMNRESSRSHAVFTITIESMEKSNEIVNIRTSLLNLVDLAGSERQKDTHAEGMRLKEAGNINRSLSCLGQVITALVDVGNGKQRHVCYRDSKLTFLLRDSLGGNAKTAIIANVHPGSRCFGETLSTLNFAQRAKLIKNKAVVNEDTQGNVSQLQAEVKRLKEQLAELASGQTPPESFLTRDKKKTNYMEYFQEAMLFFKKSEQEKKSLIEKVTQLEDLTLKKEKFIQSNKMIVKFREDQIIRLEKLHKESRGGFLPEEQDRLLSELRNEIQTLREQIEHHPRVAKYAMENHSLREENRRLRLLEPVKRAQEMDAQTIAKLEKAFSEISGMEKSDKNQQGFSPKAQKEPCLFANTEKLKAQLLQIQTELNNSKQEYEEFKELTRKRQLELESELQSLQKANLNLENLLEATKACKRQEVSQLNKIHAETLKIITTPTKAYQLHSRPVPKLSPEMGSFGSLYTQNSSILDNDILNEPVPPEMNEQAFEA
notes: Kif15, human, first 714 amino acids (motor domain and part of the stalk sufficient for dimerization), cloned into pET-21b; also called recombinant Kif15 motor domain; source: E. coli BL21 (DE3), purified (Ni-NTA)

Legend:
[1] = biological target: the molecule itself; test: SEC + other: sucrose gradient centrifugation; 80 μg of each protein alone or both in motor buffer (100mM PIPES, 2mM MgAc2, 1mM EGTA, 1mM DTT), pre-incubated 30 min on ice; Superose 6 column; 6-28% sucrose gradients, 16 h at 4°C; with or without ATP; native molecular weights calculated from Stokes radius and sedimentation coefficient
[2] = biological target: B1; test: as above; details: both partners purified

| Binder | stoichiometry N [1] | stoichiometry N [2] [KBP per Kif15-M dimer] |
| --- | --- | --- |
| B1 | 2 | – |
| KBP-His (full-length His-tagged KBP) (natural protein, human, UniProt Q96EK5 1-621, looked up, also called recombinant His-tagged KBP; source: E. coli BL21 (DE3), purified (Ni-NTA)) MANVPWAEVCEKFQAALALSRVELHKNPEKEPYKSKYSARALLEEVKALLGPAPEDEDERPEAEDGPGAGDHALGLPAEVVEPEGPVAQRAVRLAVIEFHLGVNHIDTEELSAGEEHLVKCLRLLRRYRLSHDCISLCIQAQNNLGILWSEREEIETAQAYLESSEALYNQYMKEVGSPPLDPTERFLPEEEKLTEQERSKRFEKVYTHNLYYLAQVYQHLEMFEKAAHYCHSTLKRQLEHNAYHPIEWAINAATLSQFYINKLCFMEARHCLSAANVIFGQTGKISATEDTPEAEGEVPELYHQRKGEIARCWIKYCLTLMQNAQLSMQDNIGELDLDKQSELRALRKKELDEEESIRKKAVQFGTGELCDAISAVEEKVSYLRPLDFEEARELFLLGQHYVFEAKEFFQIDGYVTDHIEVVQDHSALFKVLAFFETDMERRCKMHKRRIAMLEPLTVDLNPQYYLLVNRQIQFEIAHAYYDMMDLKVAIADRLRDPDSHIVKKINNLNKSALKYYQLFLDSLRDPNKVFPEHIGEDVLRPAMLAKFRVARLYGKIITADPKKELENLATSLEHYKFIVDYCEKHPEAAQEIEVELELSKEMVSLLPTKMERFRTKMALT | – | 2 |
